Measured values published in patent US20230212549A1 (3B PHARMACEUTICALS, published 2023).
Numbered stars: 1 amine (or outer) side, 2 acyl side, 3 side chain; on linkers, the order of the positions; unused ones are H or OH. Bridge positions count the residues as written; N and C are the ends. Square brackets hold non-standard residues; d marks the D form. Primed or numbered codes have the meaning given here. * marks the point of attachment. tMeBn(LuDOTA-AET) = 1,3,5-trimethylbenzylidene (from 1,3,5-tris(bromomethyl)benzene) bridge with two thioethers to the Cys, its third CH2 carries AET (2-aminoethanethiol, attached through S), whose amine is acylated by DOTA complexing lutet, O=C([O-])CN1CCN(CC(=O)[O-])CCN(CC(=O)NCCSCc2cc(C[*:1])cc(C[*:2])c2)CCN(CC(=O)[O-])CC1.[Lu+3]; Ttds″ = 1,13-diamino-4,7,10-trioxatridecan-succinamic acid spacer, O=C(CCC(=O)[*:2])NCCCOCCOCCOCCCN[*:1]; TBMB(SCH2CH2NH-DOTA) = O=C(O)CN1CCN(CC(=O)O)CCN(CC(=O)NCCSCc2cc(C[*:1])cc(C[*:2])c2)CCN(CC(=O)O)CC1; Ttds = 1,13-diamino-4,7,10-trioxatridecan-succinamic acid, O=C(CCC(=O)[*:2])NCCCOCCOCCOCCCN[*:1]; Ttds(4) = spacer between chelator and peptide, O=C(CCC(=O)[*:2])NCCCOCCOCCOCCCN[*:1]; N4Ac = 6-Carboxy-1,4,8,11-tetraazaundecane, an N4-chelator, NCCNCC(CNCCN)C(=O)*; DOTA = O=C(O)CN1CCN(CC(=O)O)CCN(CC(=O)*)CCN(CC(=O)O)CC1; nBu‑CAyl = n-butylaminocarbonyl, CCCCNC(=O)*; mXylylene = c1cc(C[*:1])cc(C[*:2])c1; Pentanesulfonyl = CCCCCS(=O)(=O)*; AF488 = Alexa Fluor 488 label; Nle = CCCC[C@H](N)C(=O)O; Hexanoyl = CCCCCC(=O)*; Ahx = NCCCCCC(=O)O; GABA = NCCCC(=O)O; Sar = CNCC(=O)O

T1: recombinant human PREP (R&D systems, #4308-SE) (human, UniProt P48147 1-710)
T1 sequence: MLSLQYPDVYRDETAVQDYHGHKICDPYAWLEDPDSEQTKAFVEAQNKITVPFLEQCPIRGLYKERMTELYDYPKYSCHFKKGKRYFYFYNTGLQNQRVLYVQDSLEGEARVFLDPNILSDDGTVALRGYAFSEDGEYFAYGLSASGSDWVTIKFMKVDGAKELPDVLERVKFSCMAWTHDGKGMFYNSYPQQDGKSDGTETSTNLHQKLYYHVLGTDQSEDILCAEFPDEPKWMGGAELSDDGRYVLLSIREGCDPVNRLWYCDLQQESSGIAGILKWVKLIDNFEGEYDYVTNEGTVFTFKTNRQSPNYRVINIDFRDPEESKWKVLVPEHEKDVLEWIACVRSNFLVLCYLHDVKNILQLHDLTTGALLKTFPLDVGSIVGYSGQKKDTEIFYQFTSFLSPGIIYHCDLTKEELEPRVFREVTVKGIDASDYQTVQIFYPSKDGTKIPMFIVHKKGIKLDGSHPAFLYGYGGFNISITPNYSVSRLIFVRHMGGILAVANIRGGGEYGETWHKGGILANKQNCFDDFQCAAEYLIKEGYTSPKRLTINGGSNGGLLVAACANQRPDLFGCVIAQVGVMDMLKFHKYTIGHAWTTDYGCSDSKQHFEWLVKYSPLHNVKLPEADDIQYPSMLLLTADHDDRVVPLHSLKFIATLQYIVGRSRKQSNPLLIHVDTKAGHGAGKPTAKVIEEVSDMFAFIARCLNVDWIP


Assays:
[1] = biological target: T2, human fibroblast activation protein (FAP) on WI-38 fibroblasts (human, UniProt Q12884 1-760); experiment: competitive FACS, WI-38 cells, Cy5-labeled peptide as competitor
T2 construct: FAP-expressing human WI-38 fibroblasts (ECACC)

[2] = biological target: T3, Recombinant human FAP (R&D systems, #3715-SE) (human, UniProt Q12884 26-760); experiment: cell-based or functional assay
[3] = biological target: T3, Recombinant human FAP (R&D systems, …); experiment: SPR (Biacore T200), FAP captured on anti-FAP antibody, single cycle kinetics
[4] = biological target: Recombinant human DPP4 (R&D systems, #9168-SE) (human, UniProt P27487 29-766); experiment: cell-based or functional assay
Recombinant human DPP4 (R&D systems, #9168-SE), sequence (P27487 29-766 limits assumed): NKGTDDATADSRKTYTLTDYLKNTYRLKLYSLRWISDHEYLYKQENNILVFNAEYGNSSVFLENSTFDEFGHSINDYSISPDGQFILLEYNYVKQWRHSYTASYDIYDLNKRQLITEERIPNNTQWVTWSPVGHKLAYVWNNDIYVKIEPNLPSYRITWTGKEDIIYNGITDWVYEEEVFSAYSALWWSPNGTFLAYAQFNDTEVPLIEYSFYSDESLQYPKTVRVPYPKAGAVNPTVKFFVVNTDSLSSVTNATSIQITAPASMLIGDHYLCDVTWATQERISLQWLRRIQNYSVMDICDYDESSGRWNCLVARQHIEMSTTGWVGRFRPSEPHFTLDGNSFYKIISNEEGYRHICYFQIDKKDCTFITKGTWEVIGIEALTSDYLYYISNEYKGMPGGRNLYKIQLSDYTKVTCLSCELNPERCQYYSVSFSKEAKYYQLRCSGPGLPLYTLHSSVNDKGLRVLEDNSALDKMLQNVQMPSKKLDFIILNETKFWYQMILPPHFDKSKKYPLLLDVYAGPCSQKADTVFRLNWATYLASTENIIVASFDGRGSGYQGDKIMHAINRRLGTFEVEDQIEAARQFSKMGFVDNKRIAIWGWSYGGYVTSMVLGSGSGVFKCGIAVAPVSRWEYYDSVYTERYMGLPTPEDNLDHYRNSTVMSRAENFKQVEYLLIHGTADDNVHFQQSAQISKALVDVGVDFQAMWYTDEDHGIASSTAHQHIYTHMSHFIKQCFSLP

[5] = biological target: T1, recombinant human PREP (R&D systems, …); experiment: cell-based or functional assay

Binder	pIC50 Category (FACS) [1]	pIC50 Category (Activity) [2]	pKD Category [3]	pIC50 (DPP4) [4]	pIC50 (PREP) [5]
{nBu‑CAyl}-C[Sar]PTQFC-OH (linker 1-7 via TBMB(SCH2CH2NH-DOTA); SMILES CCCCNC(=O)N[C@H]1CSCc2cc(CSCCNC(=O)CN3CCN(CC(=O)O)CCN(CC(=O)O)CCN(CC(=O)O)CC3)cc(c2)CSC[C@@H](C(=O)O)NC(=O)[C@H](Cc2ccccc2)NC(=O)[C@H](CCC(N)=O)NC(=O)[C@H]([C@@H](C)O)NC(=O)[C@@H]2CCCN2C(=O)CN(C)C1=O, also called 3BP-4607) [nBu-CAyl-[Cys(tMeBn(DOTA-AET))-Nmg-Pro-Thr-Gln-Phe-Cys]-OH]	> 8 pIC50	> 8 pIC50			
{nBu‑CAyl}-C[Sar]PTQFC-NH2 (linker 1-7 via TBMB(SCH2CH2NH-DOTA); SMILES CCCCNC(=O)N[C@H]1CSCc2cc(CSCCNC(=O)CN3CCN(CC(=O)O)CCN(CC(=O)O)CCN(CC(=O)O)CC3)cc(c2)CSC[C@@H](C(N)=O)NC(=O)[C@H](Cc2ccccc2)NC(=O)[C@H](CCC(N)=O)NC(=O)[C@H]([C@@H](C)O)NC(=O)[C@@H]2CCCN2C(=O)CN(C)C1=O, also called 3BP-4621) [nBu-CAyl-[Cys(tMeBn(DOTA-AET))-Nmg-Pro-Thr-Gln-Phe-Cys]-NH2]	> 8 pIC50	> 8 pIC50			
{DOTA}-[Ttds][Nle]CPPTQFCD[Ttds]K(DOTA)-NH2 (linker 3-9 via mXylylene; SMILES CCCC[C@H](NC(=O)CCC(=O)NCCCOCCOCCOCCCNC(=O)CN1CCN(CC(=O)O)CCN(CC(=O)O)CCN(CC(=O)O)CC1)C(=O)N[C@H]1CSCc2cccc(c2)CSC[C@@H](C(=O)N[C@@H](CC(=O)O)C(=O)NCCCOCCOCCOCCCNC(=O)CCC(=O)N[C@@H](CCCCNC(=O)CN2CCN(CC(=O)O)CCN(CC(=O)O)CCN(CC(=O)O)CC2)C(N)=O)NC(=O)[C@H](Cc2ccccc2)NC(=O)[C@H](CCC(N)=O)NC(=O)[C@H]([C@@H](C)O)NC(=O)[C@@H]2CCCN2C(=O)[C@@H]2CCCN2C1=O, also called 3BP-4393) [DOTA-Ttds-Nle-[Cys(3MeBn)-Pro-Pro-Thr-Gln-Phe-Cys]-Asp-Ttds-Lys(DOTA)-NH2]	> 8 pIC50	> 8 pIC50			
Hexanoyl-CPPTEFCDHFRD[Ttds″]K(DOTA)-NH2 (linker 1-7 via mXylylene; SMILES CCCCCC(=O)N[C@H]1CSCc2cccc(c2)CSC[C@@H](C(=O)N[C@@H](CC(=O)O)C(=O)N[C@@H](Cc2c[nH]cn2)C(=O)N[C@@H](Cc2ccccc2)C(=O)N[C@@H](CCCNC(=N)N)C(=O)N[C@@H](CC(=O)O)C(=O)NCCCOCCOCCOCCCNC(=O)CCC(=O)N[C@@H](CCCCNC(=O)CN2CCN(CC(=O)O)CCN(CC(=O)O)CCN(CC(=O)O)CC2)C(N)=O)NC(=O)[C@H](Cc2ccccc2)NC(=O)[C@H](CCC(=O)O)NC(=O)[C@H]([C@@H](C)O)NC(=O)[C@@H]2CCCN2C(=O)[C@@H]2CCCN2C1=O) [Hex-[Cys(3MeBn)-Pro-Pro-Thr-Glu-Phe-Cys]-Asp-His-Phe-Arg-Asp-Ttds-Lys(DOTA)-NH2]			> 8 pKD	< 6 pIC50	< 6 pIC50
Hexanoyl-CPPTQFCD[GABA]R[Ttds″]K(AF488)-NH2 (linker 1-7 via tMeBn(LuDOTA-AET); not fully specified (residue 1); printed as Hex-[Cys(tMeBn(LuDOTA-AET))-Pro-Pro-Thr-Gln-Phe-Cys]-Asp-Gab-Arg-Ttds-Lys(AF488)-NH2; also: DOTA complexing lutetium, also called 3BP-4372) [Hex-[Cys(tMeBn(LuDOTA-AET))-Pro-Pro-Thr-Gln-Phe-Cys]-Asp-Gab-Arg-Ttds-Lys(AF488)-NH2]	> 8 pIC50	> 8 pIC50			
Hexanoyl-CPPTQFC-NH2 (linker 1-7 via mXylylene) [Hex-[Cys(3MeBn)-Pro-Pro-Thr-Gln-Phe-Cys]-NH2]				< 6 pIC50	< 6 pIC50
Pentanesulfonyl-CPPTQFCD-NH2 (linker 1-7 via tMeBn(InDOTA-PP); also: In complex of DOTA (InDOTA), also called 3BP-3717) [Pentyl-SO2-[Cys(tMeBn(InDOTA-PP))-Pro-Pro-Thr-Gln-Phe-Cys]-Asp-NH2]	> 8 pIC50	> 8 pIC50	> 8 pKD		
Hexanoyl-CPPTQFCG-OH (linker 1-7 via tMeBn(InDOTA-AET); also: In complex (InDOTA), also called 3BP-3714) [Hex-[Cys(tMeBn(InDOTA-AET))-Pro-Pro-Thr-Gln-Phe-Cys]-Gly-OH]	> 8 pIC50	> 8 pIC50	> 8 pKD		
Hexanoyl-CPPTQFCD[Ttds″]K(DOTA)-NH2 (linker 1-7 via TBMB(SCH2CH2NH-DOTA); not fully specified (residue 1); printed as Hex-[Cys(tMeBn(DOTA-AET))-Pro-Pro-Thr-Gln-Phe-Cys]-Asp-Ttds-Lys(DOTA)-NH2, also called 3BP-4391) [Hex-[Cys(tMeBn(DOTA-AET))-Pro-Pro-Thr-Gln-Phe-Cys]-Asp-Ttds-Lys(DOTA)-NH2]	> 8 pIC50	> 8 pIC50			
N4Ac-[Ttds″][Nle]CPPTEFC-OH (linker 3-9 via mXylylene; SMILES CCCC[C@H](NC(=O)CCC(=O)NCCCOCCOCCOCCCNC(=O)C(CNCCN)CNCCN)C(=O)N[C@H]1CSCc2cccc(c2)CSC[C@@H](C(=O)O)NC(=O)[C@H](Cc2ccccc2)NC(=O)[C@H](CCC(=O)O)NC(=O)[C@H]([C@@H](C)O)NC(=O)[C@@H]2CCCN2C(=O)[C@@H]2CCCN2C1=O, also called 3BP-4161) [N4Ac-Ttds-Nle-[Cys-(3MeBn)-Pro-Pro-Thr-Glu-Phe-Cys]-OH]	> 8 pIC50	> 8 pIC50	> 8 pKD		
{DOTA}-[Ttds(4)][Nle]CPPTEFCDHFRD-NH2 (linker 3-9 via mXylylene; SMILES CCCC[C@H](NC(=O)CCC(=O)NCCCOCCOCCOCCCNC(=O)CN1CCN(CC(=O)O)CCN(CC(=O)O)CCN(CC(=O)O)CC1)C(=O)N[C@H]1CSCc2cccc(c2)CSC[C@@H](C(=O)N[C@@H](CC(=O)O)C(=O)N[C@@H](Cc2c[nH]cn2)C(=O)N[C@@H](Cc2ccccc2)C(=O)N[C@@H](CCCNC(=N)N)C(=O)N[C@@H](CC(=O)O)C(N)=O)NC(=O)[C@H](Cc2ccccc2)NC(=O)[C@H](CCC(=O)O)NC(=O)[C@H]([C@@H](C)O)NC(=O)[C@@H]2CCCN2C(=O)[C@@H]2CCCN2C1=O) [DOTA-Ttds-Nle-[Cys(3MeBn)-Pro-Pro-Thr-Glu-Phe-Cys]-Asp-His-Phe-Arg-Asp-NH2]			> 8 pKD	< 6 pIC50	< 6 pIC50
Hexanoyl-C[Sar]PTQFC-OH (linker 1-7 via tMeBn(InDOTA-AET); not fully specified (residue 1); printed as Hex--[C(tMeBn(InDOTA--AET))--Nmg-PTQFC]-OH; also: DOTA complexing indium, also called 3BP-3716) [Hex-[Cys(tMeBn(InDOTA-AET))-Nmg-Pro-Thr-Gln-Phe-Cys]-OH]	> 8 pIC50	> 8 pIC50	> 8 pKD		
H-[Ahx][Ttds][Nle]CPPTQFCD-NH2 (linker 4-10 via mXylylene; SMILES CCCC[C@H](NC(=O)CCC(=O)NCCCOCCOCCOCCCNC(=O)CCCCCN)C(=O)N[C@H]1CSCc2cccc(c2)CSC[C@@H](C(=O)N[C@@H](CC(=O)O)C(N)=O)NC(=O)[C@H](Cc2ccccc2)NC(=O)[C@H](CCC(N)=O)NC(=O)[C@H]([C@@H](C)O)NC(=O)[C@@H]2CCCN2C(=O)[C@@H]2CCCN2C1=O, also called 3BP-3980) [H-Ahx-Ttds-Nle-[Cys-(3MeBn)-Pro-Pro-Thr-Gln-Phe-Cys]-Asp-NH2]	> 8 pIC50	> 8 pIC50			
Hexanoyl-CPPTQFC-OH (bridge 1-7; not fully specified (bridges); printed as Hex-[Cys(tMeBn(DOTA-AET))-Pro-Pro-Thr-Gln-Phe-Cys]-OH; also: DOTA-AET attached to tMeBn scaffold) [Hex-[Cys(tMeBn(DOTA-AET))-Pro-Pro-Thr-Gln-Phe-Cys]-OH]				< 6 pIC50	< 6 pIC50
Hexanoyl-CPPTQFCD-NH2 (linker 1-7 via tMeBn(H-O2Oc-AET), also called 3BP-4003) [Hex-[Cys-(tMeBn(H-O2Oc-AET))-Pro-Pro-Thr-Gln-Phe-Cys]-Asp-NH2]	> 8 pIC50	> 8 pIC50			
